Where a chain is given by its changes, count along the chain named.
Experiments:
[1] = biological target: T1, TUT1_ΔN (form-I crystal) (Homo sapiens, UniProt Q9H6E5, DEL235-304/C372A/C415A/C501A/C504S/DEL651-750); assay: X-ray crystal structure (soak), […] Å; type: binding; settings: Ba2+; 2 mM UTP, 4 mM BaCl2; incoming nucleotide site
T1 construct: gene TUT1; palm, fingers and KA-1 domains; residues 1-140, 235-304 and 651-750 removed; cysteine mutations (order of the two mutation sets read as form-I, form-II); pET22b His tag, E. coli
T1 sequence (Q9H6E5 with tags, fused parts or gaps DEL235-304/C372A/C415A/C501A/C504S/DEL651-750): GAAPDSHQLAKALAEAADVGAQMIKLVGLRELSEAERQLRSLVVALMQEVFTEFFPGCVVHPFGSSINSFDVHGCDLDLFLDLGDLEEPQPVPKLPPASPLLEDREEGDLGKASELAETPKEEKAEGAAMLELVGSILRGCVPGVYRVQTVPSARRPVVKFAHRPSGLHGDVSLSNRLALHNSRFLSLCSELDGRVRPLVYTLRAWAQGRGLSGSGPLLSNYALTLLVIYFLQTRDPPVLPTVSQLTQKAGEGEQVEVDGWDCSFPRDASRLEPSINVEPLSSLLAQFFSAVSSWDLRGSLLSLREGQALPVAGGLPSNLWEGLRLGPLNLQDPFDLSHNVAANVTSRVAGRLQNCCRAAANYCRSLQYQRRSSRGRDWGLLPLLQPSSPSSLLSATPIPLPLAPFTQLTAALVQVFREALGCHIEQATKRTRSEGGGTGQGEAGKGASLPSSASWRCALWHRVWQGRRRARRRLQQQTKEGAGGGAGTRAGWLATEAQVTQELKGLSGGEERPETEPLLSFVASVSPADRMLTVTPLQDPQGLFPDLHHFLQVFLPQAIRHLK

[2] = biological target: T2, TUT1_ΔN (form-II crystal) (Homo sapiens, UniProt Q9H6E5, DEL235-304/C372A/C399A/C415A/C501A/C504S/C574A/DEL651-750); assay: X-ray crystal structure (soak), […] Å; type: binding; settings: Mg2+; 2 mM UTP, 4 mM MgCl2; incoming nucleotide site
T2 construct: gene TUT1; palm, fingers and KA-1 domains; residues 1-140, 235-304 and 651-750 removed; cysteine mutations (order of the two mutation sets read as form-I, form-II); pET22b His tag, E. coli
T2 sequence (Q9H6E5 with tags, fused parts or gaps DEL235-304/C372A/C399A/C415A/C501A/C504S/C574A/DEL651-750): T1 sequence (Q9H6E5 with tags, fused parts or gaps DEL235-304/C372A/C415A/C501A/C504S/DEL651-750) with C189A, C364A

[3] = biological target: T2, TUT1_ΔN (form-II crystal); assay: X-ray crystal structure (soak), […] Å; type: binding; settings: Mg2+; 10 mM ATP, 20 mM MgCl2; incoming nucleotide site
[4] = substrate: Nc1ncnc2c1ncn2[C@@H]1O[C@H](COP(=O)(O)OP(=O)(O)OP(=O)(O)O)[C@@H](O)[C@H]1O; assay: purified protein; type: biochemical, Homo sapiens; settings: co-substrate 1 μM U6 snRNA-u4, 10 mM MgCl2, 100 mM NaCl, pH 8.5, 37 °C
[5] = substrate: O=c1ccn([C@@H]2O[C@H](COP(=O)(O)OP(=O)(O)OP(=O)(O)O)[C@@H](O)[C@H]2O)c(=O)[nH]1; assay: purified protein; type: biochemical, Homo sapiens; settings: co-substrate 1 μM U6 snRNA-u4, 10 mM MgCl2, 100 mM NaCl, pH 8.5, 37 °C

## O=c1ccn([C@@H]2O[C@H](COP(=O)(O)OP(=O)(O)OP(=O)(O)O)[C@@H](O)[C@H]2O)c(=O)[nH]1 [UTP]
[1]
  X-ray crystal structure (soak), 2.95 Å: The form-I TUT1_ΔN structure complexed with UTP (soaked in) was initially solved
[2]
  X-ray crystal structure (soak), 2.7 Å: form-II TUT1_ΔN with UTP and ATP soaked in were also analysed

## Nc1ncnc2c1ncn2[C@@H]1O[C@H](COP(=O)(O)OP(=O)(O)OP(=O)(O)O)[C@@H](O)[C@H]1O [ATP]
[3]
  X-ray crystal structure (soak), 2.8 Å: form-II TUT1_ΔN with UTP and ATP soaked in were also analysed

B1: human TUT1 (full-length, wild-type) (Homo sapiens) (protein)
chain: MAAVDSDVESLPRGGFRCCLCHVTTANRPSLDAHLGGRKHRHLVELRAARKAQGLRSVFVSGFPRDVDSAQLSEYFLAFGPVASVVMDKDKGVFAIVEMGDVGAREAVLSQSQHSLGGHRLRVRPREQKEFQSPASKSPKGAAPDSHQLAKALAEAADVGAQMIKLVGLRELSEAERQLRSLVVALMQEVFTEFFPGCVVHPFGSSINSFDVHGCDLDLFLDLGDLEEPQPVPKAPESPSLDSALASPLDPQALACTPASPPDSQPPASPQDSEALDFETPSSSLAPQTPDSALASETLASPQSLPPASPLLEDREEGDLGKASELAETPKEEKAEGAAMLELVGSILRGCVPGVYRVQTVPSARRPVVKFCHRPSGLHGDVSLSNRLALHNSRFLSLCSELDGRVRPLVYTLRCWAQGRGLSGSGPLLSNYALTLLVIYFLQTRDPPVLPTVSQLTQKAGEGEQVEVDGWDCSFPRDASRLEPSINVEPLSSLLAQFFSCVSCWDLRGSLLSLREGQALPVAGGLPSNLWEGLRLGPLNLQDPFDLSHNVAANVTSRVAGRLQNCCRAAANYCRSLQYQRRSSRGRDWGLLPLLQPSSPSSLLSATPIPLPLAPFTQLTAALVQVFREALGCHIEQATKRTRSEGGGTGESSQGGTSKRLKVDGQKNCCEEGKEEQQGCAGDGGEDRVEEMVIEVGEMVQDWAMQSPGQPGDLPLTTGKHGAPGEEGQPSHAALAERGPKGHEAAQEWSQGEAGKGASLPSSASWRCALWHRVWQGRRRARRRLQQQTKEGAGGGAGTRAGWLATEAQVTQELKGLSGGEERPETEPLLSFVASVSPADRMLTVTPLQDPQGLFPDLHHFLQVFLPQAIRHLK
notes: full-length 1-874, synthetic codon-optimised gene, pET22b (His tag, no cleavage told), E. coli BL21(DE3), Ni-NTA/heparin/Superdex 200
[4]
  Km: 1,380 μM
  kcat: 0.002 s^–1
[5]
  Km: 59 µM
  kcat: 0.059 s^–1
